This is an account of results in patent US20250152742A1, “COMPOSITIONS AND METHODS FOR NEUROLOGICAL DISEASES” (Trames Bio, Inc., priority 2022, published 2025).

In this assay the test system is engineered chimeric receptor SEQ ID NO: 33 and its mutants (human α7-nAChR ligand binding domain / human GlyRα1 ion pore domain) in Lenti-X 293T cells. Description: YFP fluorescence quenching anion reporter plate reader assay (percent quench, EC50). The class given is cell-based. The following applies: ligand TC-5619; YFP plate reader. In outline: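 Percent quench compares mean YFP signal over the final 10 s with the 15 s baseline before ligand, added in iodide-containing extracellular solution (pH 7.2). Cells were LX293T carrying a YFP anion reporter, transiently transfected with the channel construct; plates were preincubated 30 min at 37 °C.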

B1: COAD1055 (protein)
chain: MRCSPGGVWLALAASLLHVSLQGEFQRKLYKELVKNYNPLERPVANDSQPLTVYFSLSLLQIMDVDEKNQVLTTNIWLQMSWTDHYLQWNVSEYPGVKTVWFPDGQIWKPDILLENSADERFDATFHTNVLVNSSGHCQYLPPGIFKSSCPMDLKNFPMDVQTCKLKFGSWSYGGWSLDLQMQEADISGYIPNGEWDLVGIPGKRSERFWECCKEPYPDVTFTVTMRRRMGYYLIQMYIPSLLIVILSWISFWINMDAAPARVGLGITTVLTMTTQSSGSRASLPKVSYVKAIDIWMAVCLLFVFSALLEYAAVNFVSRQHKELLRFRRKRRHHKSPMLNLFQEDEAGEGRFNFSAYGMGPACLQAKDGISVKGANNSNTTNPPPAPSKSPEEMRKLFIQRAKKIDKISRIGFPMAFLIFNMFYWIIYKIVRREDVHNQ
modifications: synthetic sequence of chimeric LGIC
B1 had an EC50 of 23.5 nM.
